Source: US20190375846A1

Biological target: human GITR at the cell surface (human) (UniProt Q9Y5U5)
Assay: cell-based or functional assay

human GITR at the cell surface (human), sequence (Q9Y5U5 26-241): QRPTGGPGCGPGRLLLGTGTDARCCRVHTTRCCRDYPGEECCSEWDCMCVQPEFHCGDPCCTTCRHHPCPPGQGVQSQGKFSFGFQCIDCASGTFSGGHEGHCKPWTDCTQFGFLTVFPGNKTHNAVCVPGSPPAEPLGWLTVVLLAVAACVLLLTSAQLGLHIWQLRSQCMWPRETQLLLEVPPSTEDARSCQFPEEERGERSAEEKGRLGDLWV

HA-tagged human GITRL protein cross-linked with anti-HA tag antibody (from UniProt Q9UNG2 52-177) (ligand)
concentration of maximum signal, GITR agonism reporter assay: 1000 to 2000 ng/mL
